Experimental data: patent publication US20260242478A1 (published 2026)
Where no end group is shown, it is not given here.

What was measured:
[1] = target: T1, Anti-CD28 Fab (SEQ ID NOs: 696, 697); test: phage ELISA on plate-bound anti-CD28 Fab pre-incubated with CD28 antigen as competitor
T1 construct: In the phage ELISA the Fab was biotinylated and captured on neutravidin coated plates
T1 sequence (VH, as listed by the source, chain 1 of 2): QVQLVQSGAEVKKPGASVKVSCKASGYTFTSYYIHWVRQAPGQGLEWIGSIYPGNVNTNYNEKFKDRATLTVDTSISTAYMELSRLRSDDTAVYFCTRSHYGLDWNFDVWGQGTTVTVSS
T1 sequence (VL, as listed by the source, chain 2 of 2): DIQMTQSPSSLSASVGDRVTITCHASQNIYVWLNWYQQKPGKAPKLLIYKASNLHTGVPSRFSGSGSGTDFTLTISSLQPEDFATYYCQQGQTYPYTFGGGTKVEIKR
Description: (§1) Clonal phage were harvested as crude supematants and screened via standard ELISAs. […] Prior to the addition of clonal phage, wells were incubated with blocking buffer and CD28 antigen or blocking buffer alone. Without washing or aspirating, clonal phage supematants were then added to the wells and incubated for a short time. Wells were then washed followed by detection of bound phage using a horse radish conjugated anti-M13 antibody.

[2] = target: T1, Anti-CD28 Fab (SEQ ID NOs: 696, 697); test: phage ELISA; clonal phage supernatant on biotinylated anti-CD28 Fab captured on neutravidin plate, anti-M13-HRP detection
Description: as §1

[3] = target: T2, Anti-CD28 Fab (SEQ ID NOs: 696, 697); test: phage binding ELISA on captured anti-CD28 Fab, wells pre-incubated with CD28 antigen as competitor
T2 construct: In the phage ELISA the Fab was biotinylated and captured on neutravidin coated plates
T2 sequence (VH, as listed by the source, chain 1 of 2): as the sequence (VH, as listed by the source, chain 1 of 2) above
T2 sequence (VL, as listed by the source, chain 2 of 2): as the sequence (VL, as listed by the source, chain 2 of 2) above
Description: (§2) Clonal phage were harvested as crude supematants and screened via standard ELISAs. […] Prior to the addition of clonal phage, wells were incubated with blocking buffer and CD28 antigen or blocking buffer alone. Without washing or aspirating, clonal phage supematants were then added to the wells and incubated for a short time. Wells were then washed followed by detection of bound phage using a horse radish conjugated anti-M13 antibody. Clonal phage of interest were then sent for sequence analysis.

[4] = target: T2, Anti-CD28 Fab (SEQ ID NOs: 696, 697); test: phage binding ELISA; biotinylated anti-CD28 Fab on neutravidin plate, bound phage detected with anti-M13-HRP;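 further: clonal phage tested as crude supernatants, given a short incubation in the Fab-captured wells before bound phage were read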
Description: as §2

[5] = target: T3, PSMA Fab (006 PSMA Fab); test: phage ELISA; PSMA Fab on plate pre-incubated with PSMA antigen as competitor, anti-M13 HRP detection;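 further: crude clonal phage supernatants added to Fab-coated wells still holding PSMA antigen in blocking buffer, with bound phage as read-out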
T3 construct: In the phage ELISA the PSMA Fab was biotinylated and captured on neutravidin coated plates; also called Anti-PSMA Fab; anti-PSMA Fab
Description: (§3) Clonal phage were harvested as crude supernatants and screened via standard ELISAs. […] Prior to the addition of clonal phage. wells were incubated with blocking buffer and PSMA antigen or blocking buffer alone. Without washing or aspirating, clonal phage supernatants were then added to the wells and incubated for a short time. Wells were then washed followed by detection of bound phage using a horse radish conjugated anti-M13 antibody.

[6] = target: T3, PSMA Fab (006 PSMA Fab); test: phage ELISA; biotinylated PSMA Fab on neutravidin plate, clonal phage supernatant, anti-M13 HRP detection;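 further: wells preincubated with PSMA antigen in blocking buffer or with blocking buffer only before clonal phage were added for a short incubation, then bound phage detected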
Description: as §3

MCSAGANWPWPLCF [Phage-1379 peptide (SEQ ID NO: 1675)]
Anti-CD28 Fab signal in the presence of CD28 (phage binding ELISA) [1]: 0.07 | Anti-CD28 Fab signal (phage binding ELISA) [2]: 2.18

B1: Phage-1433 (peptide-92 library clone, SEQ ID NO: 1729) (peptide)
peptide: PCAAGAMWPWPVCL
notes: Tested as clonal phage supernatant; not shown: fused to the pIII filament of the bacteriophage
Anti-CD28 Fab signal in the presence of CD28 (phage binding ELISA) [3]: 0.06 | Anti-CD28 Fab signal (phage binding ELISA) [4]: 1.95

TCSAGATYTWSKCF [Phage-1386 peptide (SEQ ID NO: 1682)]
Anti-CD28 Fab signal in the presence of CD28 (phage binding ELISA) [1]: 0.06 | Anti-CD28 Fab signal (phage binding ELISA) [2]: 2.15

B2: Phage-1431 (peptide-92 library clone, SEQ ID NO: 1727) (peptide)
peptide: LCKPGVPNSWPTCL
notes: as for B1
Anti-CD28 Fab signal in the presence of CD28 (phage binding ELISA) [3]: 0.06 | Anti-CD28 Fab signal (phage binding ELISA) [4]: 1.95

B3: Phage-1442 (peptide-92 library clone, SEQ ID NO: 1738) (peptide)
peptide: TCSAGATYIWPMCF
notes: as for B1
Anti-CD28 Fab signal in the presence of CD28 (phage binding ELISA) [3]: 0.08 | Anti-CD28 Fab signal (phage binding ELISA) [4]: 1.9

NCSAGATYPWPLCL [Phage-1381 peptide (SEQ ID NO: 1677)]
Anti-CD28 Fab signal in the presence of CD28 (phage binding ELISA) [1]: 0.07 | Anti-CD28 Fab signal (phage binding ELISA) [2]: 2.17

AFPSCIPEWMCSGM [Phage-2831 (Peptide-180 library clone)]
phage binding ELISA signal (Anti-PSMA Fab, PSMA antigen present) [5]: 0.149 | Phage binding ELISA signal, Anti-PSMA Fab [6]: 0.45

B4: Phage-1440 (peptide-92 library clone, SEQ ID NO: 1736) (peptide)
peptide: TCSAGATWAWPSCF
notes: as for B1
Anti-CD28 Fab signal in the presence of CD28 (phage binding ELISA) [3]: 0.1 | Anti-CD28 Fab signal (phage binding ELISA) [4]: 1.92

B5: Phage-1432 (peptide-92 library clone, SEQ ID NO: 1728) (peptide)
peptide: TCSAGAHYPWPDCI
notes: as for B1
Anti-CD28 Fab signal in the presence of CD28 (phage binding ELISA) [3]: 0.07 | Anti-CD28 Fab signal (phage binding ELISA) [4]: 1.95

SCAAGAMYSWPTCL [Phage-1382 peptide (SEQ ID NO: 1678)]
Anti-CD28 Fab signal in the presence of CD28 (phage binding ELISA) [1]: 0.08 | Anti-CD28 Fab signal (phage binding ELISA) [2]: 2.16

YHKWCTPEWMCVFD [Phage-2825 (Peptide-180 library clone)]
phage binding ELISA signal (Anti-PSMA Fab, PSMA antigen present) [5]: 0.0666 | Phage binding ELISA signal, Anti-PSMA Fab [6]: 0.474

SSNWCTPAWMCVTS [Phage-2826 (Peptide-180 library clone)]
phage binding ELISA signal (Anti-PSMA Fab, PSMA antigen present) [5]: 0.0627 | Phage binding ELISA signal, Anti-PSMA Fab [6]: 0.47

LCNAGATYSWPTCL [Phage-1387 peptide (SEQ ID NO: 1683)]
Anti-CD28 Fab signal in the presence of CD28 (phage binding ELISA) [1]: 0.06 | Anti-CD28 Fab signal (phage binding ELISA) [2]: 2.14

EVKWCTPYWMCIDT [Phage-2833 (Peptide-180 library clone)]
phage binding ELISA signal (Anti-PSMA Fab, PSMA antigen present) [5]: 0.072 | Phage binding ELISA signal, Anti-PSMA Fab [6]: 0.443

B6: Phage-1441 (peptide-92 library clone, SEQ ID NO: 1737) (peptide)
peptide: TCSAGAHYVWPMCF
notes: as for B1
Anti-CD28 Fab signal in the presence of CD28 (phage binding ELISA) [3]: 0.17 | Anti-CD28 Fab signal (phage binding ELISA) [4]: 1.91

NTNWCTPPWMCEGL [Phage-2834 (Peptide-180 library clone)]
phage binding ELISA signal (Anti-PSMA Fab, PSMA antigen present) [5]: 0.0664 | Phage binding ELISA signal, Anti-PSMA Fab [6]: 0.442

B7: Phage-1444 (peptide-92 library clone, SEQ ID NO: 1740) (peptide)
peptide: TCSAGATWPWPICL
notes: as for B1
Anti-CD28 Fab signal in the presence of CD28 (phage binding ELISA) [3]: 0.08 | Anti-CD28 Fab signal (phage binding ELISA) [4]: 1.89

TCSAGASNKLSLCL [Phage-1378 peptide (SEQ ID NO: 1674)]
Anti-CD28 Fab signal in the presence of CD28 (phage binding ELISA) [1]: 0.06 | Anti-CD28 Fab signal (phage binding ELISA) [2]: 2.18

MCAAGFHYPWPACL (cysteine pairing not given here; also: fused to phage pIII protein) [Phage-1374 peptide (SEQ ID NO: 1670)]
Anti-CD28 Fab signal in the presence of CD28 (phage binding ELISA) [1]: 0.1 | Anti-CD28 Fab signal (phage binding ELISA) [2]: 2.23

B8: Phage-1435 (peptide-92 library clone, SEQ ID NO: 1731) (peptide)
peptide: MCSAGAMYPWPLCL
notes: as for B1
Anti-CD28 Fab signal in the presence of CD28 (phage binding ELISA) [3]: 0.07 | Anti-CD28 Fab signal (phage binding ELISA) [4]: 1.93

B9: Phage-1437 (peptide-92 library clone, SEQ ID NO: 1733) (peptide)
peptide: TCAAGAYWTWPACF
notes: as for B1
Anti-CD28 Fab signal in the presence of CD28 (phage binding ELISA) [3]: 0.09 | Anti-CD28 Fab signal (phage binding ELISA) [4]: 1.93

B10: Phage-1443 (peptide-92 library clone, SEQ ID NO: 1739) (peptide)
peptide: TCRAGATYNWPFCL
notes: as for B1
Anti-CD28 Fab signal in the presence of CD28 (phage binding ELISA) [3]: 0.07 | Anti-CD28 Fab signal (phage binding ELISA) [4]: 1.9

B11: Phage-1439 (peptide-92 library clone, SEQ ID NO: 1735) (peptide)
peptide: SCSAGASLQLSICL
notes: as for B1
Anti-CD28 Fab signal in the presence of CD28 (phage binding ELISA) [3]: 0.06 | Anti-CD28 Fab signal (phage binding ELISA) [4]: 1.92

TCAAGANWEWPWCF [Phage-1375 peptide (SEQ ID NO: 1671)]
Anti-CD28 Fab signal in the presence of CD28 (phage binding ELISA) [1]: 0.08 | Anti-CD28 Fab signal (phage binding ELISA) [2]: 2.22

DVKWCTPRWMCELS [Phage-2829 (Peptide-180 library clone)]
phage binding ELISA signal (Anti-PSMA Fab, PSMA antigen present) [5]: 0.0913 | Phage binding ELISA signal, Anti-PSMA Fab [6]: 0.457

B12: Phage-1434 (peptide-92 library clone, SEQ ID NO: 1730) (peptide)
peptide: LCNAGAMYKWPTCL
notes: as for B1
Anti-CD28 Fab signal in the presence of CD28 (phage binding ELISA) [3]: 0.06 | Anti-CD28 Fab signal (phage binding ELISA) [4]: 1.94

NCSAGAQWPWPICL [Phage-1383 peptide (SEQ ID NO: 1679)]
Anti-CD28 Fab signal in the presence of CD28 (phage binding ELISA) [1]: 0.08 | Anti-CD28 Fab signal (phage binding ELISA) [2]: 2.15

LCAAGAHYPWPQCL [Phage-1384 peptide (SEQ ID NO: 1680)]
Anti-CD28 Fab signal in the presence of CD28 (phage binding ELISA) [1]: 0.07 | Anti-CD28 Fab signal (phage binding ELISA) [2]: 2.15

QAIWCIPDWMCVQN [Phage-2830 (Peptide-180 library clone)]
phage binding ELISA signal (Anti-PSMA Fab, PSMA antigen present) [5]: 0.137 | Phage binding ELISA signal, Anti-PSMA Fab [6]: 0.454

EFKWCSPAQLCVNG [Phage-2832 (Peptide-180 library clone)]
phage binding ELISA signal (Anti-PSMA Fab, PSMA antigen present) [5]: 0.0526 | Phage binding ELISA signal, Anti-PSMA Fab [6]: 0.447

RCSAGFHYPLSLCL [Phage-1380 peptide (SEQ ID NO: 1676)]
Anti-CD28 Fab signal in the presence of CD28 (phage binding ELISA) [1]: 0.06 | Anti-CD28 Fab signal (phage binding ELISA) [2]: 2.18

GLPWCVPQWMCVVS [Phage-2824 (Peptide-180 library clone)]
phage binding ELISA signal (Anti-PSMA Fab, PSMA antigen present) [5]: 0.0721 | Phage binding ELISA signal, Anti-PSMA Fab [6]: 0.482

TCSAGATYTWPWCF [Phage-1388 peptide (SEQ ID NO: 1684)]
Anti-CD28 Fab signal in the presence of CD28 (phage binding ELISA) [1]: 0.07 | Anti-CD28 Fab signal (phage binding ELISA) [2]: 2.14

TCAAGAHWPWPTCF [Phage-1385 peptide (SEQ ID NO: 1681)]
Anti-CD28 Fab signal in the presence of CD28 (phage binding ELISA) [1]: 0.07 | Anti-CD28 Fab signal (phage binding ELISA) [2]: 2.15

TCAAGATYAWPYCV [Phage-1376 peptide (SEQ ID NO: 1672)]
Anti-CD28 Fab signal in the presence of CD28 (phage binding ELISA) [1]: 0.09 | Anti-CD28 Fab signal (phage binding ELISA) [2]: 2.21

B13: Phage-1438 (peptide-92 library clone, SEQ ID NO: 1734) (peptide)
peptide: TCSAGAGYPWPLCY
notes: as for B1
Anti-CD28 Fab signal in the presence of CD28 (phage binding ELISA) [3]: 0.08 | Anti-CD28 Fab signal (phage binding ELISA) [4]: 1.92

LEKWCIPSQLCQLD [Phage-2827 (Peptide-180 library clone)]
phage binding ELISA signal (Anti-PSMA Fab, PSMA antigen present) [5]: 0.0743 | Phage binding ELISA signal, Anti-PSMA Fab [6]: 0.464

GEKWCSPAWMCEWL [Phage-2828 (Peptide-180 library clone)]
phage binding ELISA signal (Anti-PSMA Fab, PSMA antigen present) [5]: 0.0817 | Phage binding ELISA signal, Anti-PSMA Fab [6]: 0.459

B14: Phage-1436 (peptide-92 library clone, SEQ ID NO: 1732) (peptide)
peptide: TCSAGAMWTWPYCF
notes: as for B1
Anti-CD28 Fab signal in the presence of CD28 (phage binding ELISA) [3]: 0.08 | Anti-CD28 Fab signal (phage binding ELISA) [4]: 1.93

TCAAGAAYPWPLCF [Phage-1377 peptide (SEQ ID NO: 1673)]
Anti-CD28 Fab signal in the presence of CD28 (phage binding ELISA) [1]: 0.11 | Anti-CD28 Fab signal (phage binding ELISA) [2]: 2.18
